± gives the standard deviation of the averaged measurements.
Experiment: total protein half-life in vivo (active degradation + dilution); higher = more stable protein
[1] = E. coli NCM3722 delta-clpP delta-lon delta-hslV, growth: N-lim chemostat, doubling time 6 h
[2] = E. coli NCM3722 delta-clpP, growth: N-lim chemostat, doubling time 6 h
[3] = E. coli NCM3722 delta-hslV, growth: N-lim chemostat, doubling time 6 h
[4] = E. coli NCM3722 delta-lon, growth: N-lim chemostat, doubling time 6 h
[5] = E. coli NCM3722 delta-smpB, growth: N-lim chemostat, doubling time 6 h
[6] = wild type E. coli NCM3722, growth: C-lim chemostat, doubling time 6 h
[7] = wild type E. coli NCM3722, growth: C-lim chemostat, doubling time 12 h
[8] = wild type E. coli NCM3722, growth: N-lim chemostat, doubling time 6 h
[9] = wild type E. coli NCM3722, growth: N-lim chemostat, doubling time 12 h
[10] = wild type E. coli NCM3722, growth: P-lim chemostat, doubling time 6 h
[11] = wild type E. coli NCM3722, growth: P-lim chemostat, doubling time 12 h
[12] = wild type E. coli NCM3722, growth: C-lim chemostat, doubling time 3 h

Row | Sequence | total protein half-life in vivo [1] [h] | total protein half-life in vivo [2] [h] | total protein half-life in vivo [3] [h] | total protein half-life in vivo [4] [h] | total protein half-life in vivo [5] [h] | total protein half-life in vivo [6] [h] | total protein half-life in vivo [7] [h] | total protein half-life in vivo [8] [h] | total protein half-life in vivo [9] [h] | total protein half-life in vivo [10] [h] | total protein half-life in vivo [11] [h] | total protein half-life in vivo [12] [h]
1 | MSRMAEQQLYIHGGYTSATSGRTFETINPANGNVLATVQAAGREDVDRAVKSAQQGQKIWASMTAMERSRILRRAVDILRERNDELAKLETLDTGKAYSETSTVDIVTGADVLEYYAGLIPALEGSQIPLRETSFVYTRREPLGVVAGIGAWNYPIQIALWKSAPALAAGNAMIFKPSEVTPLTALKLAEIYSEAGLPDGVFNVLPGVGAETGQYLTEHPGIAKVSFTGGVASGKKVMANSAASSLKEVTMELGGKSPLIVFDDADLDLAADIAMMANFFSSGQVCTNGTRVFVPAKCKAAFEQKILARVERIRAGDVFDPQTNFGPLVSFPHRDNVLRYIAKGKEEGARVLCGGDVLKGDGFDNGAWVAPTVFTDCSDDMTIVREEIFGPVMSILTYESEDEVIRRANDTDYGLAAGIVTADLNRAHRVIHQLEAGICWINTWGESPAEMPVGGYKHSGIGRENGVMTLQSYTQVKSIQVEMAKFQSIF | 5.11 ± 0.25 | 5.45 ± 1.3 | 5.06 ± 0.11 | 5.28 ± 0.61 | 4.486 ± 0.038 | 5.21 ± 0.24 | 11.1 ± 0.13 | 4.37 ± 0.14 | 7.63 ± 0.23 | 6 ± 0.24 | 11.7 ± 0.46 | –
2 | MSYQYVNVVTINKVAVIEFNYGRKLNALSKVFIDDLMQALSDLNRPEIRCIILRAPSGSKVFSAGHDIHELPSGGRDPLSYDDPLRQITRMIQKFPKPIISMVEGSVWGGAFEMIMSSDLIIAASTSTFSMTPVNLGVPYNLVGIHNLTRDAGFHIVKELIFTASPITAQRALAVGILNHVVEVEELEDFTLQMAHHISEKAPLAIAVIKEELRVLGEAHTMNSDEFERIQGMRRAVYDSEDYQEGMNAFLEKRKPNFVGH | 5.13 | – | – | – | – | 2.79 | 6.64 | – | – | – | – | 2.48
3 | MVRRLTSPRLEFEAAAIYEYPEHLRSFLNDLPTRPGVYLFHGESDTMPLYIGKSVNIRSRVLSHLRTPDEAAMLRQSRRISWICTAGEIGALLLEARLIKEQQPLFNKRLRRNRQLCALQLNEKRVDVVYAKEVDFSRAPNLFGLFANRRAALQALQTIADEQKLCYGLLGLEPLSRGRACFRSALKRCAGACCGKESHEEHALRLRQSLERLRVVCWPWQGAVALKEQHPEMTQYHIIQNWLWLGAVNSLEEATTLIRTPAGFDHDGYKILCKPLLSGNYEITELDPANDQRAS | 5.53 ± 1.1 | – | 1.43 | – | 0.89 | – | 1.93 | 1.6 ± 0.079 | – | 1.28 | – | 1.06
4 | MLSPLLKRYTWNSAWLYYARIFIALCGTTAFPWWLGDVKLTIPLTLGMVAAALTDLDDRLAGRLRNLIITLFCFFIASASVELLFPWPWLFAIGLTLSTSGFILLGGLGQRYATIAFGALLIAIYTMLGTSLYEHWYQQPMYLLAGAVWYNVLTLIGHLLFPVRPLQDNLARCYEQLARYLELKSRMFDPDIEDQSQAPLYDLALANGLLMATLNQTKLSLLTRLRGDRGQRGTRRTLHYYFVAQDIHERASSSHIQYQTLREHFRHSDVLFRFQRLMSMQGQACQQLSRCILLRQPYQHDPHFERAFTHIDAALERMRDNGAPADLLKTLGFLLNNLRAIDAQLATIESEQAQALPHNNDENELADDSPHGLSDIWLRLSRHFTPESALFRHAVRMSLVLCFGYAIIQITGMHHGYWILLTSLFVCQPNYNATRHRLKLRIIGTLVGIAIGIPVLWFVPSLEGQLVLLVITGVLFFAFRNVQYAHATMFITLLVLLCFNLLGEGFEVALPRVIDTLIGCAIAWAAVSYIWPDWQFRNLPRMLERATEANCRYLDAILEQYHQGRDNRLAYRIARRDAHNRDAELASVVSNMSSEPNVTPQIREAAFRLLCLNHTFTSYISALGAHREQLTNPEILAFLDDAVCYVDDALHHQPADEERVNEALASLKQRMQQLEPRADSKEPLVVQQVGLLIALLPEIGRLQRQITQVPQETPVSA | 5.89 | 5.69 | – | – | 5.95 ± 0.25 | – | > 16 | 5.03 ± 1.3 | 13.4 | 6.49 ± 0.13 | – | 3.21 ± 0.3
5 | MLQFILRRLGLVIPTFIGITLLTFAFVHMIPGDPVMIMAGERGISPERHAQLLAELGLDKPMWQQYLHYIWGVMHGDLGISMKSRIPVWEEFVPRFQATLELGVCAMIFATAVGIPVGVLAAVKRGSIFDHTAVGLALTGYSMPIFWWGMMLIMLVSVHWNLTPVSGRVSDMVFLDDSNPLTGFMLIDTAIWGEDGNFIDAVAHMILPAIVLGTIPLAVIVRMTRSSMLEVLGEDYIRTARAKGLTRMRVIIVHALRNAMLPVVTVIGLQVGTLLAGAILTETIFSWPGLGRWLIDALQRRDYPVVQGGVLLVATMIILVNLLVDLLYGVVNPRIRHKK [P0AEF8] | 6.91 ± 0.36 | 6.54 ± 1.1 | 5.46 ± 0.53 | 5.39 ± 0.46 | 5.95 ± 0.45 | 6.656 ± 0.039 | 13.1 ± 1.5 | 6.42 ± 0.19 | 13 ± 3.1 | 5.96 ± 0.41 | 11.5 ± 1 | 3.53 ± 0.4
6 | MNTTTPMGMLQQPRPFFMIFFVELWERFGYYGVQGVLAVFFVKQLGFSQEQAFVTFGAFAALVYGLISIGGYVGDHLLGTKRTIVLGALVLAIGYFMTGMSLLKPDLIFIALGTIAVGNGLFKANPASLLSKCYPPKDPRLDGAFTLFYMSINIGSLIALSLAPVIADRFGYSVTYNLCGAGLIIALLVYIACRGMVKDIGSEPDFRPMSFSKLLYVLLGSVVMIFVCAWLMHNVEVANLVLIVLSIVVTIIFFRQAFKLDKTGRNKMFVAFVLMLEAVVFYILYAQMPTSLNFFAINNVHHEILGFSINPVSFQALNPFWVVLASPILAGIYTHLGNKGKDLSMPMKFTLGMFMCSLGFLTAAAAGMWFADAQGLTSPWFIVLVYLFQSLGELFISALGLAMIAALVPQHLMGFILGMWFLTQAAAFLLGGYVATFTAVPDNITDPLETLPVYTNVFGKIGLVTLGVAVVMLLMVPWLKRMIATPESH | 6.66 ± 0.32 | 6.8 ± 0.1 | – | 5.78 ± 0.79 | > 8 | – | – | – | 6.12 | 6.47 | 11.1 ± 1.4 | > 4
7 | MNIDTREITLEPADNARLLSLCGPFDDNIKQLERRLGIEINRRDNHFKLTGRPICVTAAADILRSLYVDTAPMRGQIQDIEPEQIHLAIKEARVLEQSAESVPEYGKAVNIKTKRGVIKPRTPNQAQYIANILDHDITFGVGPAGTGKTYLAVAAAVDALERQEIRRILLTRPAVEAGEKLGFLPGDLSQKVDPYLRPLYDALFEMLGFEKVEKLIERNVIEVAPLAYMRGRTLNDAFIILDESQNTTIEQMKMFLTRIGFNSKAVITGDVTQIDLPRNTKSGLRHAIEVLADVEEISFNFFHSEDVVRHPVVARIVNAYEAWEEAEQKRKAALAAERKREEQEQK [P0A9K3] | 5.2 ± 0.69 | 4.25 ± 0.14 | 2.95 ± 0.066 | 4.1 ± 0.2 | 3.167 ± 0.017 | 4.809 ± 0.025 | 7.67 ± 0.34 | 3.15 ± 0.17 | 4.373 ± 0.043 | 4.37 ± 0.17 | 7.78 ± 0.12 | 2.77 ± 0.3
8 | MSQPLLSVNGLMMRFGGLLAVNNVNLELYPQEIVSLIGPNGAGKTTVFNCLTGFYKPTGGTILLRDQHLEGLPGQQIARMGVVRTFQHVRLFREMTVIENLLVAQHQQLKTGLFSGLLKTPSFRRAQSEALDRAATWLERIGLLEHANRQASNLAYGDQRRLEIARCMVTQPEILMLDEPAAGLNPKETKELDELIAELRNHHNTTILLIEHDMKLVMGISDRIYVVNQGTPLANGTPEQIRNNPDVIRAYLGEA [P0A9S7] | 6.52 ± 0.66 | 6.12 ± 0.48 | 6.06 ± 0.53 | 6.07 ± 0.61 | 5.74 ± 0.43 | 6.18 ± 0.31 | 11.99 ± 0.11 | 6.06 ± 0.2 | 12.3 ± 0.36 | 6.12 ± 0.34 | 12.9 ± 0.69 | 3.12 ± 0.036
